Results: patent US20240343811A1 (SHANDONG SIMCERE BIOPHARMACUTICAL, published 2024)
Where “and” joins values, the source holds several entries; their conditions need not be identical. Equal entries are not always repeated.

Assays:
[1] = target: T1, human CD16b (NA1), full length, on FlpinCHO cells (human, UniProt O75015 17-200); assay: FACS on FlpinCHO cells
T1 construct: also called FlpinCHO-human CD16b (NA1)
T1 chain: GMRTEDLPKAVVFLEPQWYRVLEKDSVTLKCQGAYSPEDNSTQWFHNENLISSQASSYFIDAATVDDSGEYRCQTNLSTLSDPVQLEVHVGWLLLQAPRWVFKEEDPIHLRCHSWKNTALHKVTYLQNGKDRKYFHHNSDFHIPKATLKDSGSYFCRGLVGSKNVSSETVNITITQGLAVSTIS
In short: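 EC50 values come from fitted MFI curves measured by FACS. Antibody dilutions were bound for 1 hour on ice to CD16b-transfected FlpinCHO cells suspended in PBS with 2% BSA blocking solution.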

[2] = target: T2, cynomolgus monkey CD16, full length, on FlpinCHO cells (cynomolgus monkey, UniProt Q8SPW2 17-254); assay: FACS on FlpinCHO cells
T2 construct: also called FlpinCHO-cyno CD16; Flipin CHO-cyno CD16
In short: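 FlpinCHO cells expressing full-length cynomolgus CD16, blocked in PBS/2% BSA at 2×10⁶ cells/ml, incubated with antibody at various concentrations 1 h on ice. Flow cytometry MFI fitted to give EC50.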

[3] = target: T3, human CD16a (158V), full length, on cells (human, UniProt P08637 17-254); assay: FACS on FlpinCHO cells; no human immunoglobulin; unlabeled antibody, second batch of Table 10
T3 construct: also used as target for the bought Jurkat-NFAT reporter line stably expressing human CD16a (158V); also called FlpinCHO-human CD16a (158V); FlpinCHO-CD16a (158V)
Experimental: (§1) The required cells were scale-up cultured in a T-75 cell culture flask to the logarithmic growth phase. The medium was aspirated, and the cells were washed twice with a PBS buffer and then digested with trypsin. After the digestion was terminated, the cells were washed twice with the PBS buffer. The cells were counted, and then the cell pellet was resuspended with a [PBS+2% (w/w) BSA] blocking solution to 2×10⁶ cells/ml, and added to a 96-well FACS reaction plate at 50 μl/well. […] 50 μl/well of the antibody to be detected was added at different concentrations, and incubated on ice for 1 hour. […] The mixture was centrifuged and washed 5 times with PBS, and FACS (FACS Canto II, purchased from BD Company) was used for detection and result analysis. Data analysis was performed by software (CellQuest) to obtain the mean fluorescence intensity (MFI) of the cells. Then, software (GraphPad Prism8) was used for analysis, data fitting and EC50 value calculation.

[4] = target: T4, human CD16a (158F), full length, on FlpinCHO cells (human, UniProt P08637 17-254); assay: as above
Experimental: as §1

[5] = target: T4, human CD16a (158F), full length, on …; assay: FACS, biotinylated antibody; biotinylated antibody, no human immunoglobulin; first batch of Table 12-2
Experimental: as §1, with “The” for “The required cells were scale-up cultured in a T-75 cell culture flask to the logarithmic growth phase. The”
(§2) An antibody to be detected was labeled in advance according to the instructions of a biotin labeling kit (EZ-Link™ NHS-PEG4 Biotinylation Kit, purchased from Thermofisher Scientific, catalog number: 21455). […] Detection was performed according to the method of Example 3.1, wherein the biotinylated antibody was detected with fluorescein APC-labeled Streptavidin (High Concentration) (purchased from Biolegend, catalog number: 405243).

[6] = target: T3, human CD16a (158V), full length, on …; assay: FACS, biotinylated antibody; biotinylated antibody, no human immunoglobulin; first batch of Table 11-1
Experimental: as §1, with “The” for “The required cells were scale-up cultured in a T-75 cell culture flask to the logarithmic growth phase. The”
as §2

[7] = target: T5, CD16 on primary human NK cells (human, UniProt P08637 17-254); assay: FACS on human NK cells, biotinylated antibody; NK cells, no human immunoglobulin; Table 15
T5 construct: whole, on cells; also called resting NK cells

[8] = target: T3, human CD16a (158V), full length, on …; assay: FACS, biotinylated antibody
[9] = target: T4, human CD16a (158F), full length, on …; assay: FACS, biotinylated antibody
[10] = target: T5, CD16 on primary human NK cells; assay: FACS on human NK cells, biotinylated antibody; NK cells, no human immunoglobulin; Table 29 (later experiment)
[11] = target: T3, human CD16a (158V), full length, on …; assay: FACS on FlpinCHO cells; no human immunoglobulin; unlabeled antibody, first batch of Table 10
Experimental: as §1

[12] = target: T4, human CD16a (158F), full length, on …; assay: as above
Experimental: as §1

[13] = target: T3, human CD16a (158V), full length, on …; assay: cell-based or functional assay

T2 sequence (Q8SPW2 other isoform, or with tags, fused parts or gaps limits assumed): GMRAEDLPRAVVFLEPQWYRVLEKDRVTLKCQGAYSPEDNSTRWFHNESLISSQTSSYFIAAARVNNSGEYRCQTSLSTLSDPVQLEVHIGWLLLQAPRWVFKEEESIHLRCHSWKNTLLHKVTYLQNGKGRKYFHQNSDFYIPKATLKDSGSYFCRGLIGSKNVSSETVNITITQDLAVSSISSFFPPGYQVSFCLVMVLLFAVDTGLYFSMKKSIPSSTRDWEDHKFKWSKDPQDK

B1: 3G8 scFv-hFc (Fc fusion)
chain: DTVLTQSPASLAVSLGQRATISCKASQSVDFDGDSFMNWYQQKPGQPPKLLIYTTSNLESGIPARFSASGSGTDFTLNIHPVEEEDTATYYCQQSNEDPYTFGGGTKLEIKGGGGSGGGGSGGGGSQVTLKESGPGILQPSQTLSLTCSFSGFSLRTSGMGVGWIRQPSGKGLEWLAHIWWDDDKRYNPALKSRLTISKDTSSNQVFLKIASVDTADTATYYCAQINPAWFAYWGQGTLVTVSAEPKSSDKTHTCPPCPAPEEFGGPSVFLFPPKPKDTLMISRTPEVTCVVVAVSHEDPEVKFNWYVDGVEVHNAKTKPREEQYNSTYRVVSVLTVLHQDWLNGKEYKCKVSNKALPAPIEKTISKAKGQPREPQVYTLPPSREEMTKNQVSLTCLVKGFYPSDIAVEWESNGQPENNYKTTPPVLDSDGSFFLYSKLTVDKSRWQQGNVFSCSVMHEALHNHYTQKSLSLSPGK
notes: also called control antibody 3G8
EC50 [1]: 1.22 nM and 2.13 nM | EC50 [2]: 2.92 nM | Maximum mean fluorescence intensity [2]: 22300 | EC50 [3]: 1.13 nM | EC50 [4]: 1.63 nM | EC50 [5]: 1.73 nM | EC50 [6]: 0.7 nM | EC50 [7]: 1.99 nM | EC50 [8]: 0.99 nM | Maximum mean fluorescence intensity [8]: 7520 | EC50 [9]: 3.43 nM | Maximum mean fluorescence intensity [9]: 2010 | EC50 [10]: 4.45 nM | EC50 [11]: 0.56 nM | EC50 [12]: ~0.82 nM | EC50, activation activity for Jurkat cell [13]: 0.03 nM | Maximum fluorescence value [13]: 153000
